Measurements as given in article PMC10565641.

Tests used:
Myc-tagged LEF1 = Myc-tagged LEF1 (UniProt Q9UJU2); assay: co-immunoprecipitation (anti-FLAG IP, immunoblot densitometry); conditions: HEK293T cells, transfected; densitometry mean of three independent experiments; parent: 1.0
Myc-tagged TCF7L2 = Myc-tagged TCF7L2 (UniProt Q9NQB0); assay: as above; conditions: HEK293T cells, transfected; densitometry mean of three independent experiments; parent: 1.0
Chain of UniProt Q9NQB0 (Q9NQB0 whole entry): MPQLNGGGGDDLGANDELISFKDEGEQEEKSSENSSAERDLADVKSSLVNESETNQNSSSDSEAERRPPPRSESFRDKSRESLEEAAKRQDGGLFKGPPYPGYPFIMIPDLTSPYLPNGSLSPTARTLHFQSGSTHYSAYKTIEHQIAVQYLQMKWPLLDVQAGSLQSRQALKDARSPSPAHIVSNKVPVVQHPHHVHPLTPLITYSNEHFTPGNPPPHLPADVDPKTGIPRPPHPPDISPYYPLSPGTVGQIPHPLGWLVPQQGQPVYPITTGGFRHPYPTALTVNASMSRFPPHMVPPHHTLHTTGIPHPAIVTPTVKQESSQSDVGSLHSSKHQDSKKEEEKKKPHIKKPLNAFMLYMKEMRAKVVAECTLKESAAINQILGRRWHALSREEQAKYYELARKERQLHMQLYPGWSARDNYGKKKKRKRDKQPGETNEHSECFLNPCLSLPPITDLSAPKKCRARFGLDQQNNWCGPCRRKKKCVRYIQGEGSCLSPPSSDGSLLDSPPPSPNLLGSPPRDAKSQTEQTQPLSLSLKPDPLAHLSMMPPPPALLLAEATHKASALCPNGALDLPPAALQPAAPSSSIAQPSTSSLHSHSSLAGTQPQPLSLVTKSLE

Chain of UniProt Q9UJU2 (Q9UJU2 whole entry): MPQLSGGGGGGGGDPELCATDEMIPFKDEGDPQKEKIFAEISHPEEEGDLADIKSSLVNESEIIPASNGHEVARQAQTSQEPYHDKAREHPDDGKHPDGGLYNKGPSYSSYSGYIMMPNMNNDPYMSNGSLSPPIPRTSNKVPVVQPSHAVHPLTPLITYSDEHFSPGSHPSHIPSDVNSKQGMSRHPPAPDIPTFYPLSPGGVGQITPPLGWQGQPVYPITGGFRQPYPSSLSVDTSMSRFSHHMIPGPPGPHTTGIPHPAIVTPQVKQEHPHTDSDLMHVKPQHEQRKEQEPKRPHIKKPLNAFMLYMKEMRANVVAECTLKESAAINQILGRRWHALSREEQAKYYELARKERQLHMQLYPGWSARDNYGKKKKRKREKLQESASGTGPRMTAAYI

FLAG-V5-tagged FBXW7α, wild type (from UniProt Q969H0) WD40 (three arginine residues within one WD40 repeat mutated; lane label WD)
ratio to parent (Myc-tagged LEF1): 0.44
ratio to parent (Myc-tagged TCF7L2): 0.17
